The values that follow are results of earlier work, collected in paper PMC5694535.

The target of data set [1] is Clathrin heavy chain TD (UniProt P11442).
The target of data set [2] is AP2 beta2 appendage (UniProt P63010).
The target of data set [3] is Clathrin heavy chain TD (UniProt P11442). The source holds these as a separate data set.
Data set [4] addresses AP2 beta2 appendage (UniProt P63010). As to the kind of experiment: ITC.

Read-outs that look alike come from different tables or passages of the source.

Chain of UniProt P63010 (P63010 701-937): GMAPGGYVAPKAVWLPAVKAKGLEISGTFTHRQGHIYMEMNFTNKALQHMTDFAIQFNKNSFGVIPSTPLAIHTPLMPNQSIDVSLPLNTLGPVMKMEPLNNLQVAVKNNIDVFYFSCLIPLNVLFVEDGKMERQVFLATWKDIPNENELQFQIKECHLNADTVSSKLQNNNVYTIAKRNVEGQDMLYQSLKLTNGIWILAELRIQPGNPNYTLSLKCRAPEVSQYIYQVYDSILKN
Chain of UniProt P11442 (P11442 1-363): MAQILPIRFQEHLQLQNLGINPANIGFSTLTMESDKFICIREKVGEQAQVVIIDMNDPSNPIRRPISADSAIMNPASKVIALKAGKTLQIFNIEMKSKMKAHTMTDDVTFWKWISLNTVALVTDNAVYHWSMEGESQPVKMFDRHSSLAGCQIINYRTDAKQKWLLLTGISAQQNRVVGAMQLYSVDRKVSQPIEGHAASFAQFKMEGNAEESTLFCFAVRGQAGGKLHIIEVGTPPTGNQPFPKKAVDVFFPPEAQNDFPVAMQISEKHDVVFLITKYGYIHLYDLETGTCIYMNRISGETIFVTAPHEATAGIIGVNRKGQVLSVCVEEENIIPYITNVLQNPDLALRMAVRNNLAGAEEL

As a reminder, the Kd is the constant that tells how readily two partners part at equilibrium. As for “AP180 DLL/DLF motifs (from UniProt Q05140)”, the Kd with Clathrin heavy chain TD [1] is 200 µM.

As for ARH peptide (from UniProt Q5SW96), the Kd in the data set with AP2 beta2 appendage [2] is 2.4 µM.

As for AP180 peptide (from UniProt Q05140), the Kd in the data set with Clathrin heavy chain TD [3] is 850 µM.

For beta-arrestin, in the data set with AP2 beta2 appendage [4], the Kd was 2.6 µM.
